These results are taken from patent publication US20250250335A1.

This test concerns the target T1, mouse CEACAM5 (mouse) (UniProt Q3UKK2).
T1 sequence (looked up): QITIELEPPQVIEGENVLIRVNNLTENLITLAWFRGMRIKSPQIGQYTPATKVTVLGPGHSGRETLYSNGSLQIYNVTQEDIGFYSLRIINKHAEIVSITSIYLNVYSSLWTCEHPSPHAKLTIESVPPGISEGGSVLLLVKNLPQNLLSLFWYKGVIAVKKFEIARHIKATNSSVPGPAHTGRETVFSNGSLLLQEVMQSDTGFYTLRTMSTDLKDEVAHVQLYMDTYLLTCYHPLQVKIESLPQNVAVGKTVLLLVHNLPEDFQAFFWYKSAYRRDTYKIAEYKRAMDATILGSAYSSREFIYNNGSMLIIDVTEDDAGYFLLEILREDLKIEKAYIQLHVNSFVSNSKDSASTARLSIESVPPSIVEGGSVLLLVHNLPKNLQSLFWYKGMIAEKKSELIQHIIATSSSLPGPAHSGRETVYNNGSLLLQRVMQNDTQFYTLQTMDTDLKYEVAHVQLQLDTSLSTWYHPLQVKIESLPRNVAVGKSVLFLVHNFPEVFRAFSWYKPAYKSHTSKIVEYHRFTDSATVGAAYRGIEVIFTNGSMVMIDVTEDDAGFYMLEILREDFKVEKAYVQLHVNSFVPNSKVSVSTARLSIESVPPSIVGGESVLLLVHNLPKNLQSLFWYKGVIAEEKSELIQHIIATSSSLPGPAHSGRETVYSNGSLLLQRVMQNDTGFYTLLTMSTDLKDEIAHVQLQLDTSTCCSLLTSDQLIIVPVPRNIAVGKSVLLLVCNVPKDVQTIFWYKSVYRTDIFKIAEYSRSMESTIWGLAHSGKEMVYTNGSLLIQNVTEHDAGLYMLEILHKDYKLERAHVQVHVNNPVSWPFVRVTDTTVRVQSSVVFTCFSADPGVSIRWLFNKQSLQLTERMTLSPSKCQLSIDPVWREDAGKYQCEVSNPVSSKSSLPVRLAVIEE
In words: ELISA on coated protein, OD450.

“And” between values parts separate entries of the source, which are not always exact repeats. Equal values may be shown once.

B1: Antibody 7 (antibody, V domains shown)
VH: QIQLVQSGPELKKPGETVKISCKASGYTFTDYGMNWVKQAPGKGLKWMGWINTYTGEPTYPDDFKGRFAFSLETSATTAYLQINNLKNEDTATYFCSRGDLLVRLDNWGQGTTLTVSS
VL: DIQMTQSPSSLSASLGGKVTITCKASQDINKYISWYQHKPGKGPRLLIHYTSTLQSGIPSRFSGSGSGRDYSFSISNLEPEDIATYYCLQYDYLRTFGGGTKLEIK
In the case of B1, the OD was 0.31 OD and 0.24 OD.
